Consider one molecule from US20200055930A1 (Pfizer, published 2020).

In test [1] the target is T1, Mouse Fc-human GDF15 (Mu IgG1Fc_Fxa_Hu GDF15) (human (GDF15 part)).
T1 construct: Whole fusion entry; also called Murine dimeric IgG1 Fc-human GDF-15 with FXa cleavage site; control human GDF15
T1 chain: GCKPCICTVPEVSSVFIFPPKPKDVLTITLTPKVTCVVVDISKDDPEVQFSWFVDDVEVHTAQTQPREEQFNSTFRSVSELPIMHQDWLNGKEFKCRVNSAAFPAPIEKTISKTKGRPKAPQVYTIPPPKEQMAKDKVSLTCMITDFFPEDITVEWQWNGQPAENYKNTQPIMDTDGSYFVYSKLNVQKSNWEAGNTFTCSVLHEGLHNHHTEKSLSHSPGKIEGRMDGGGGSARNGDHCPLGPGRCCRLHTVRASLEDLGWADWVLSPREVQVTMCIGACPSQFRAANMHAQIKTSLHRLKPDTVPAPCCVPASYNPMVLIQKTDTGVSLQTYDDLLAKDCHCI
As to the kind of experiment: SPR BIAcore T200 37C; Fc-GDF15 captured, IgG analyte. The procedure:
Mouse Fc-human GDF15 (Mu IgG1Fc_Fxa_Hu GDF15; SEQ ID NO:2), Mouse Fc-mouse GDF15 (Mu IgG1Fc_Fxa_Mu GDF15; SEQ ID NO:5) and Mouse Fc-cynomolgus monkey GDF15 (Mu IgG1Fc_Fxa_Cyno GDF15; SEQ ID NO:4) were captured onto three different flow cells of a CM4 sensorchip (catalogue number BR100534, GE Healthcare) surface using the Mouse Antibody Capture Kit (BR100838, GE Healthcare) according to the manufacturer's protocol. The running and sample buffer was 10 mM HEPES pH 7.4, 0.15M NaCl, 3 mM EDTA, 0.05% P-20 (HBS-EP+). The final capture levels of Mu IgG1Fc_Fxa_Hu GDF15, Mu IgG1Fc_Fxa_Mu GDF15 and Mu IgG1Fc_Fxa_Cyno GDF15 were 40 resonance units (RU), 32 RU and 25 RU respectively. Flow cell 1 was used as a reference flow cell. […] The dissociation was monitored for 2.8 hours and the surface was regenerated with 10 mM Glycine pH 1.7. Binding affinities and rate constants were determined for murine and cynomolgus monkey GDF15 by fitting the resulting sensorgram data to a 1:1 Langmuir model in BIAcore T200 Evaluation software version 2.0 (GE Healthcare). […]
(In general: SPR reads the build-up and loss of mass on a sensor chip optically.)

Test [2] deals with T2, Mouse Fc-cynomolgus monkey GDF15 (Mu IgG1Fc_Fxa_Cyno GDF15) (cynomolgus monkey (GDF15 part)).
T2 construct: Whole fusion entry; also called Murine dimeric IgG1 Fc-cyno GDF-15 with FXa cleavage site
T2 chain: T1 chain with H239R, R254H, A287E, T296M, S297N, I345V
The description is as above. The procedure: (§1) Mouse Fc-human GDF15 (Mu IgG1Fc_Fxa_Hu GDF15; SEQ ID NO:2), Mouse Fc-mouse GDF15 (Mu IgG1Fc_Fxa_Mu GDF15; SEQ ID NO:5) and Mouse Fc-cynomolgus monkey GDF15 (Mu IgG1Fc_Fxa_Cyno GDF15; SEQ ID NO:4) were captured onto three different flow cells of a CM4 sensorchip (catalogue number BR100534, GE Healthcare) surface using the Mouse Antibody Capture Kit (BR100838, GE Healthcare) according to the manufacturer's protocol. The running and sample buffer was 10 mM HEPES pH 7.4, 0.15M NaCl, 3 mM EDTA, 0.05% P-20 (HBS-EP+). The final capture levels of Mu IgG1Fc_Fxa_Hu GDF15, Mu IgG1Fc_Fxa_Mu GDF15 and Mu IgG1Fc_Fxa_Cyno GDF15 were 40 resonance units (RU), 32 RU and 25 RU respectively. Flow cell 1 was used as a reference flow cell. […] The dissociation was monitored for 2.8 hours and the surface was regenerated with 10 mM Glycine pH 1.7. Binding affinities and rate constants were determined for murine and cynomolgus monkey GDF15 by fitting the resulting sensorgram data to a 1:1 Langmuir model in BIAcore T200 Evaluation software version 2.0 (GE Healthcare).
(§2) Additionally, the binding of clone GDF15_001 to cynomolgus monkey and mouse GDF15 was measured using above mentioned BIAcore assay (Table 7).

In test [3] the target is T1, Mouse Fc-human GDF15 (Mu IgG1Fc_Fxa_Hu …). As to the kind of experiment: SPR BIAcore T200 37C; Fc-GDF15 captured, IgG analyte; same run as printed in Table 6 (the 8th table r7). As to the method: as §1, §2
For test [4] the target is unchanged. As to the kind of experiment: SPR BIAcore T200 37C; Fc-GDF15 captured, IgG analyte; same run as printed in Table 6 (the 8th table r8). The procedure:
as §1, §2

For test [5] the target is unchanged. As to the kind of experiment: SPR BIAcore T200 37C; Fc-GDF15 captured, IgG analyte; same run as printed in Table 6 (the 8th table r9). As to the method:
as §1, §2

Positions count from the first letter of the chain named. Values joined by “and” are separate entries in the source; they are usually repeats but may differ in a detail not shown here. Equal entries are not always repeated.

B1: GDF15_001 (antibody, human IgG1, kappa, V domains shown)
VH: QVQLVQSGAEVKKPGSSVKVSCKASGYTFSSYNIDWVRQAPGQGLEWMGGINPIFGTAFYNQKFQGRVTITADESTSTAYMELSSLRSEDTAVYYCAREAITTVGAMDHWGQGTLVTVSS
VL: EIVLTQSPATLSLSPGERATLSCRTSQSVHNYLAWYQQKPGQAPRLLIYDASTRADGIPARFSGSGSGTDFTLTISSLEPEDFAVYYCQQFWSWPWTFGQGTKVEIKR
notes: Bivalent IgG1/kappa; also called clone GDF15_001; anti-GDF15_001
On to B1, for which the T½ in test [1] was 40.3 h and 20.9 h and 30.8 h; in test [2] it was 14.8 h and 15.5 h and 18.7 h; in test [3] it was 20.9 h; in test [4], 30.8 h; in test [5], 40.3 h.
